From the supplement of paper PMC10567573
± gives the standard deviation.

Assay: protein stability index of a GFP-peptide fusion (GPS, HEK-293T) (PSI 1-6); higher = more stable
[1] = treatment: DMSO, c terminus: a fixed tail appended
[2] = treatment: MLN4924 1 uM, 8 h, c terminus: a fixed tail appended
[3] = treatment: DMSO, c terminus: native
[4] = treatment: MLN4924 1 uM, 8 h, c terminus: native
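Note: 24-mer peptide tiles fused after GFP, lentivirally expressed, FACS-sorted into six equal bins by GFP/DsRed ratio, decoded by Illumina sequencing, PSI is the read-weighted mean bin number.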

IRLKESINCQLSDPSSTKPGTLLK [TRIM14]
protein stability index [1]: 3.28 ± 0.3
protein stability index [2]: 3.48 ± 0.33

GLFFPPQLNGTANDTAGPELPDPL [NFE2L1]
protein stability index [1]: 4.29 ± 0.27
protein stability index [2]: 4.45 ± 0.23

FYHYFEDKENIYILLEYCSRRSMA [PLK2]
protein stability index [1]: 2.34 ± 0.53
protein stability index [2]: 2.21 ± 0.27

TQSNRTSRLIGKKMNRSVSLTIY [WEE1]
protein stability index [3]: 2.19 ± 0.14
protein stability index [4]: 2.27 ± 0.15

GKDAKTTNGHGGEAAEGKSLGSAL [TRIM29]
protein stability index [1]: 5.36 ± 0.14
protein stability index [2]: 5.27 ± 0.19

TMLATRNFSAAKSLLKKPDGVKES [CAMK2D]
protein stability index [1]: 4.36 ± 0.067
protein stability index [2]: 4.33 ± 0.51

SCYKGHREIARYLLEQGAQVNRRS [FEM1A]
protein stability index [1]: 2.93 ± 0.14
protein stability index [2]: 3.11 ± 0.48

DIALNKHRSRRKWCFWNSSPAVA [RHOBTB1]
protein stability index [3]: 2.46 ± 1.4
protein stability index [4]: 2.87 ± 1.8

GRFCGQQNPPVIKSSGRFLWIKFF [NETO1]
protein stability index [1]: 2.1 ± 0.84
protein stability index [2]: 2.39 ± 1.1

GGADIIVIKYNVNDKFSFHEVKDN [RHOBTB3]
protein stability index [1]: 2.72 ± 0.42
protein stability index [2]: 2.09 ± 0.55

QPLRPWAGGDVPHKTHQAPASASS [DYRK1B]
protein stability index [1]: 4.54 ± 0.17
protein stability index [2]: 4.58 ± 0.26

SPLTLAACGGHVELAALLIERGAS [ANKRD17]
protein stability index [1]: 2.48 ± 0.33
protein stability index [2]: 2.48 ± 0.31

APHQQPPAPPSDALLDLHFPSDHL [TFE3]
protein stability index [1]: 4.65 ± 0.087
protein stability index [2]: 4.77 ± 0.057

RESRILFSTWNLDHIIEKKRTIIP [DFFB]
protein stability index [1]: 2.35 ± 0.22
protein stability index [2]: 2.52 ± 0.22

FHYIPGTDILDLENQRENLEQPFL [PLEKHN1]
protein stability index [1]: 2.92 ± 0.58
protein stability index [2]: 3.09 ± 0.16

SYQKPKEVVVAESELQKELKKVKT [DPCD]
protein stability index [1]: 4.95 ± 0.36
protein stability index [2]: 5.25 ± 0.31

FYGLLFTSENLKLVHIVCHKKTTH [DFFB]
protein stability index [1]: 2.73 ± 0.56
protein stability index [2]: 2.58 ± 0.31

CSRTTGYQILTLEKDQEQVVMNLD [GMCL1]
protein stability index [1]: 3.6 ± 0.52
protein stability index [2]: 3.43 ± 0.34

HAPGVPKILVGNRLHLAFKRQVPR [RAB40A]
protein stability index [1]: 2.58 ± 0.28
protein stability index [2]: 2.88 ± 0.31

FDVAFIGSIMTVWLSTAPTEPLTH [CARM1]
protein stability index [1]: 3.24 ± 0.64
protein stability index [2]: 2.88 ± 0.53

DSSIIRTTQDLFAINRDTAFPGAS [RHOBTB3]
protein stability index [1]: 3.91 ± 0.23
protein stability index [2]: 3.94 ± 0.23

PYLLGPDKNLTEREVFNEIYPVWT [SLC19A2]
protein stability index [1]: 2.35 ± 0.24
protein stability index [2]: 2.71 ± 0.26

FDPLPPSDTIYSYVRPERLSPISH [TCF25]
protein stability index [1]: 3.07 ± 0.17
protein stability index [2]: 3.14 ± 0.42

WKERDEYITKVSEEVTRLGAQVKE [TRIM15]
protein stability index [1]: 4.69 ± 0.23
protein stability index [2]: 4.22 ± 0.42

SAASGARFPLDSAQDPDVGTNTVS [PCDHGC5]
protein stability index [1]: 5.39 ± 0.12
protein stability index [2]: 5.2 ± 0.31

GEIETIARFGSGPCKTRDDEPVCG [APMAP]
protein stability index [1]: 4.66 ± 0.47
protein stability index [2]: 5.13 ± 0.27

EHGPSPGQDTFCQGKADGLYPNPR [CHIT1]
protein stability index [1]: 4.38 ± 0.26
protein stability index [2]: 4.36 ± 0.53

LCLACSAGYYELAQVLLAMHANVE [ANKRD17]
protein stability index [1]: 2.96 ± 0.48
protein stability index [2]: 2.56 ± 0.25

EWLLDAPELPEGHLEDWLEKRAKR [ZMAT5]
protein stability index [1]: 4.95 ± 0.52
protein stability index [2]: 4.79 ± 0.15

PSSQSSSGGGRDSSSSILRWLPEK [ELOA2]
protein stability index [1]: 4.15 ± 0.12
protein stability index [2]: 4.25 ± 0.1

QTGGDVNVEMDAAPGVDLSRILNE [KRT16]
protein stability index [1]: 4.97 ± 0.31
protein stability index [2]: 5.18 ± 0.085

RAALTYTSLEITILTSQPGKEVVK [M1AP]
protein stability index [1]: 2.32 ± 0.19
protein stability index [2]: 2.49 ± 0.34

AGLCMDSPSPMDPHMAEQTFEQAI [CDC25B]
protein stability index [1]: 4.5 ± 0.47
protein stability index [2]: 4.6 ± 0.15

SEMKKCSDYESIEVPDSYTGPRLS [PPEF2]
protein stability index [1]: 4.58 ± 0.35
protein stability index [2]: 4.53 ± 0.11

NFYYFSLIPKTWYSAEQFCVSRNS [CD207]
protein stability index [1]: 2.6 ± 0.53
protein stability index [2]: 2.3 ± 0.45

LGSFESPANSETSDLTLYLVVAVA [PCDHGA10]
protein stability index [1]: 2.66 ± 0.87
protein stability index [2]: 2.67 ± 0.48

QVKSRQNKTNKNSVSSCDQEHQSA [SMOC2]
protein stability index [1]: 5.1 ± 0.32
protein stability index [2]: 5.34 ± 0.16

LRHLELLDEFARENIDSLYNVNLS [SCNN1D]
protein stability index [1]: 2.66 ± 0.092
protein stability index [2]: 2.94 ± 0.34

EGHCVIQVDVGDVNDNAPEVLLAS [PCDHGC5]
protein stability index [1]: 3.86 ± 0.35
protein stability index [2]: 3.96 ± 0.27

RSHENKLRQLTAELAEHRCHPVER [PSD2]
protein stability index [1]: 3.84 ± 0.18
protein stability index [2]: 4.02 ± 0.14

DQAGGEGKHITVFKTYISPWERAM [MYOZ1]
protein stability index [1]: 2.91 ± 0.27
protein stability index [2]: 2.84 ± 0.39

TISVNQTRVNLSSDTESTDLPSST [DLC1]
protein stability index [1]: 4.11 ± 0.15
protein stability index [2]: 4.41 ± 0.23

VVLCFSIANPNSLNHVKSMWYPEI [RHOBTB1]
protein stability index [1]: 4.05 ± 0.91
protein stability index [2]: 3.6 ± 0.21

EKSQAYPRRRRPGCYAYRQNPEAI [MYORG]
protein stability index [1]: 3.34 ± 0.27
protein stability index [2]: 3.32 ± 0.14

KEKWWDGQRDRKAEHWKHKKEESG [PBXIP1]
protein stability index [1]: 4.54 ± 0.21
protein stability index [2]: 4.66 ± 0.52
